Our source for the GalNAc-T activity of Y289L mutant with acceptor Glc (100 mM), 500 µM UDP-GalNAc, +LA 55 µM (the value without LA in the same row is 2.6), GalNAc-T activity of Y289L mutant with acceptor GlcNAc (100 mM), 500 µM UDP-GalNAc, +LA 55 µM (the value without LA in the same row is 31.3) and GalNAc-T activity of Y289L mutant with acceptor Glucosamine (100 mM), 500 µM UDP-GalNAc, +LA 55 µM (the value without LA in the same row is 1.8) values is US20060084162A1.

The target in this assay is Y289L_C342T mutant of the catalytic domain (residues 130-402) of bovine β(1,4)-galactosyltransferase I (bovine) (UniProt P08037). The assay can be described thus: cell-based or functional assay.
UniProt P08037, sequence (P08037 other isoform, or with tags, fused parts or gaps Y289L C342T Y289L C342T): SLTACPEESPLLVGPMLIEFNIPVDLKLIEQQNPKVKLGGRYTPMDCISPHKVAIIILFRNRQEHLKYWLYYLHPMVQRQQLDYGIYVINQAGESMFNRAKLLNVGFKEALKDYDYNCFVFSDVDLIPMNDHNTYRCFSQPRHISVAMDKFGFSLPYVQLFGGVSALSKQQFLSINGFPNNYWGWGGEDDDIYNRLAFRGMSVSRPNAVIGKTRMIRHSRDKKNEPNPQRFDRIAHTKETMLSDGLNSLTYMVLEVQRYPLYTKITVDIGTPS

With “bovine α-Lactalbumin (Sigma) (from UniProt P00711 20-142)”, the GalNAc-T activity of Y289L mutant with acceptor Glc (100 mM), 500 µM UDP-GalNAc, +LA 55 µM (the value without LA in the same row is 2.6) was found to be 34.8 pmol/min/ng; the GalNAc-T activity of Y289L mutant with acceptor GlcNAc (100 mM), 500 µM UDP-GalNAc, +LA 55 µM (the value without LA in the same row is 31.3) turned out to be 3.3 pmol/min/ng; the GalNAc-T activity of Y289L mutant with acceptor Glucosamine (100 mM), 500 µM UDP-GalNAc, +LA 55 µM (the value without LA in the same row is 1.8) amounted to 5 pmol/min/ng.
